The values that follow come from the nanobody polyreactivity screen of Harvey et al. (2022).

The data set in a line: yeast display, Sf9 membrane polyspecificity reagent, FACS + sequencing; frameworks hold sequencing errors. In a few lines:
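Genes from sorted yeast were amplified by colony PCR, read by MiSeq 2 × 250 sequencing and filtered on CDR length. These cells carried a synthetic nanobody library in Saccharomyces cerevisiae BJ5465 and were sorted by FACS into low and high (top ~1%) gates on anti-HA and streptavidin fluorescence. Polyreactivity is labelled according to the gate of origin.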
Consider “QVQLVESGGGLVQAGGSLRLSCAASGSIFRYNTMGWYRQAPGKERELVATITRRGGSTYYADSVKGRFTISRDNAKNTVYLQMNSLKPEDTAVYYCNADNFGGPYNYWGQGTQVTVSS”, for which the “polyreactivity (PSR sort gate)” value was “low polyreactivity”.
Take “QVQLVESGGGLVQAGGSLRLSCDASGRTFPINAMGWYRQAPGKERELVAAISSGDGITYYADSVKGRFTISRDNAKNTVYLQMNSLKPEDTAVYYCAKELSQGLRYDYWGQGTQVTVSS”: the “polyreactivity (PSR sort gate)” value was “high polyreactivity”.
Take “QVQLVESGGGLVQAGGSLRLSCAASGLIFLYNPMGWYRQAPGKEREFVAAITSVDSTKYADSVKGRFTISRENAKNTVYLQLNSLKPEDTAVYYCAAVPRYQYGYWGQGTQVTVSS”: the “polyreactivity (PSR sort gate)” value is given as “low polyreactivity”.
For “QVQLVESGGGLVQAGGSLRLSCATSGRTYVPAMGWYRQAPGKERALVAAITSSGITYYADSVKGRVTISRDNAKNTVYLQMNSLNPEDTAVYYCATSYSNRWGWKYNYWGQGTQVTVSS” the value was “high polyreactivity”; for “QVQLGESGGGLVQAGGSLRLSCAPSGSPFPYYVMGWYRPAPGKERELVAAISKSGGSTYYADSVKGRFTISRDNAKNTVYLQMNSLKPEDPAVYYCAAAIRSYRGPRFNYWGQGTQVTVSS”, “high polyreactivity”.
As to “QVQLVESGGGLVQAGGSLRLSCAASGYTLSVNAMGWYRQAPGKERELVATIDFGGGSTYYADSVKGRFTISRDNAKNTVYLQMNSLKPEDTAVYYCNTEWTSLSKSSLGGRYDHWGQGTQVTVSS”, the “polyreactivity (PSR sort gate)” value is “low polyreactivity”.
For “QVQLVESGGGLVQAGGSLRLSCAASGRIFPKYAMGWYRQAPGKERELVAAISSSGGSTYYADSVKGRFTISRDNAKNTVYLQMNSLKPEDTAVYYCAAEQYSYGYTIYEYWGQGTQVTVSS” the value was “high polyreactivity”; for “QVQLVESGGGLVHAGGSLRVSCAASGFTFYLYTMGWYRQAPGTERELVAAINYSGGRTYYADSVKGRFTISRDYAKNSVYLQMNSLKPEDTAVYYCYPRVKNLQAYDYWGQGTQVTVSS”, “high polyreactivity”.
Take “QVQLVESGGGLVQAGGSLRLSCAASGSTFYYNAMGWYRQAPGKERELVAAISKRGGTTSYADSVKGRFTISRDNAKNTVYLQMNSLKPEDTADYYCADQTYLRQYYRYYWGQGTQVTVSS”: the “polyreactivity (PSR sort gate)” value is reported as “high polyreactivity”.
Regarding “QFHLVDSGGGLVQAGCSLRLSCAASGFTFNSYAMGWYRQAPGKERELVASITRGGGSTYYADSVKGRFTISRDNAKNTVYLKMNSLKPEDTAVYYCTARVRRRGGSFNYWGQGTQVIVSS”, the “polyreactivity (PSR sort gate)” value is listed as “high polyreactivity”.
For “QLQLVDSGGGLVQAGGSLRLSCAASGLIFPAYTMGWYRQAPGKQRELVAAISRSGGSTYYADSVKGRFTISRDNAKNTVYLQMNSLKTEDTAVYYCAAFYSGGYDYWGQGTQVTVSS” the value was “high polyreactivity”.
“QVQLVESGGGLVQAGGSLRISCAASGRIFDYNVMGWYRQAPGKERELVAGISSGGSTYYADSVKGRFTISRDNAKNTVYLQMNSLKPEDTAVYYCAARGRPYRGYGYWGQGTQVTVSS”: the “polyreactivity (PSR sort gate)” value is “high polyreactivity”.
Consider “QVQLVESGGGLVQAGGSLRLSCAASGLTFHRYAMGWYRQAPGKERELVAANNYSGGRTYYADSVKGRFTISRDNAKNTVYLQMNSLKPEDTAVYYCAAPRASGYYWGQGTQVTVSS”, for which the “polyreactivity (PSR sort gate)” value is listed as “high polyreactivity”.
For “QVQLVESGGGLVQAGGSLRLSCAASGRTLYKYAMGWYRQAPGKERELVAAISRNGGSTYYADSVKGRFTISRDNAKNTVYLQMNSLKPEDTAVYYCNKRWGYQYLWVADYDYWGQGTQVTVSS” the value was “high polyreactivity”; for “QVQLVESGGGLVQAGGSLRLSCAASGSTFSRYTMGWYRQAPGKERELVAVITRRGGSTYYADSVKGRFTISRDNAKNTVYLQMNSLKPADTAVYYCAADYKYPIDYGYWGQGTQVTVSS”, “high polyreactivity”; for “QVQLLESWGGLVQAGGSLRLSCAASGFIFRGYAMGWYRQAPGKDRELVAAISTGGGRTYYADSVKGRFTISRDNAKNTVYLQMNSLKPDDTAVYYCIRRSYTQVLMDYWGQGTQVTVSS”, “high polyreactivity”.
On to “QVQHEESGGGLVQAGASLRLSCAPSGRILLYNAMGCYRQAPGKERELVAAISSTGGRTYYADSVKGRFTISRDNAKNTFYLQMNSLKPEDTAVYYCAADYYWSLHQRMDYWGQGTQVTVSS”, for which the “polyreactivity (PSR sort gate)” value is “high polyreactivity”.
For “QVHLVESGRGLVQAGGSLRLSCAASGSTFKIYAMGWYRPAPAKERELVAAITRGGSTNYADSVKGRFTISRDTAKKTVYLQMNSLKPEDTAVYSFAASYWYRRYGTYSYDYWGHGTQVTVSS” the value was “high polyreactivity”; for “QVQLVESGGGLVQAGGSLRLSCAASGFIFVSKAMGWSRQAPGKERELVAAITTGGSTNYADSVKGRFTISRDNAKYTVYLLMNSLKPEDTAVYYCAADGRYSTYIYLHDYWGQGTQVTVSS”, “low polyreactivity”; for “QVQLVESGGGLVQARGSLRLSCAASGFTFPQYAMAWYRQAPGKERELVAVISWSGSSTYYADSVKGRFTISRDNAKNTVYLQMNSLKPEDTAVDYCNTRKLYQVDYDYWGQGTQVTVSS”, “high polyreactivity”.
For “QVQLVESGGGLVQAGGSLRLSCAASGSIFTTYAMGWYRQAPGKERELVAGITGGDSSTYADSVKGRFTISRDNAKNTVYLQMNSLKPEDTAVYYCAVDSPYQHDDYWGQGTQVTVSS” the value was “low polyreactivity”.
Consider “QVQLVESGGGLVQAGGRLRLSCAASGSTFGANAMGWYRQAPGKEREFVAAISRSGVRTYYADSVKGRFTISRDNAKNTVFLQMNSLKPEDTAVYYCAADGYWWTDTRYDYCGQGTQVTVSS”, for which the “polyreactivity (PSR sort gate)” value is on record as “low polyreactivity”.
As for “QVQLVESGGGLVQAGGSLRLSCAASGITFRFNAMGWYRQAPGKEREFVAAITYSGDSTYYADSVKGRFTISRDNAKNTVYLQMNSLKPEDTAVYYCAADYYAISRRIFYYWGQGTQVTVSS”, the “polyreactivity (PSR sort gate)” value is “low polyreactivity”.
Regarding “QVHLGESGGGLVQAGGSLRLSCAASGSIFYGYAMGWYRHAPGKERELVAAITRDGSTNYADSVKGRFTISRDNAKNTVYLQMNSLKPEDTAVYYCAADTRSRRLSLVRRDYWGQGTQVTVSS”, the “polyreactivity (PSR sort gate)” value is reported as “high polyreactivity”.
Consider “QVQLVQSGVGLDQAGGSLRLSCAASGSISSQNAMGWYRQAPGKESELVAAISWIGGSTYYADSVKGRFTISRDNAKNTVYLQMNSLKPEDTAVYYCAKDRASGFKYYYWGLGTQVTVSS”, for which the “polyreactivity (PSR sort gate)” value is given as “low polyreactivity”.
As to “QVQLVESGGGFVQAGGSLRLTCAASGRTFAKNTMGWYRQAPGKERELVAAITWRGGTTYYADSVKGRVTISRDNAKNTVYLQMNSLKPEDTAVYYCAKDRYYGYFRSRSDYWGQGTQVTVSS”, the “polyreactivity (PSR sort gate)” value was “high polyreactivity”.
For “QVQLVESGGGLVKAGGSLRLSCAASGRNFKTYAMGWYRQAPGKERELVAAISRDGRTYYADSVKGRFTISRDNAKNTVYLQMNSLKPEDTAVYFCNKRSYRKGDYWGQGTQVTVSS” the value was “low polyreactivity”; for “QVQLVESGGGLVQAGGSLRLSCAASGRIFRRYAMGWYRQAPGKERELVASISSGGSTNYADSVNGRFTISRDNAKNTVYLQMNSLKPEDTAVYYCAASYPSIYYYRYDYWGKGTQVTVSS”, “high polyreactivity”; for “QVQLVESGGGLVQAGGSLRLSCAASGFIFLKYAMGWYRQAPGKERELVASITSTGGSTYYADSVKGRFTISRDNAKNTVYLQMNSQKPEDTAVYYCARDTVPSSDPWYYAWGGFEFDYWGQGTQVTVSS”, “low polyreactivity”.
Take “QVQLVESGGGLVQAGGSLRLSCAASGSTFDYYPMGWYRQAPGKERELVAGIDSAGSTNYADSVKGRFTISRDNAKNTVYLQMNSLKTGRYRGLYCNVGKTITTYAFPTFDYWGQGTQVTVSS”: the “polyreactivity (PSR sort gate)” value was “low polyreactivity”.
